Values quoted from earlier work in paper PMC2695410.

Target: Calmodulin (Bos taurus) (UniProt P62157)

Aquaporin 0 C-terminal peptide C-terminus (from UniProt P30301)
Kd: 480 nM
